Laboratory results as given in patent US20250129166A1 (Five Prime, published 2025).
Where a chain is given by its changes, count along the chain named.

B1: P1-068761_E30D (antibody, human IgG1, kappa, V domains shown)
VH: EVQLVESGGGLVQPGKSLRLSCAASGFTLDDEAMHWVRQAPGKGLEWVSGINWNSEEIGYADSVKGRFTISRDNAKNSLYLQMNSLRTEDTALYYCAKVPGYSHGWIDAEDVWGQGTMVTVSS
VL: not shown
notes: also called P1-070864
B2: P1-071793 (P1-070916_HC_K16R_T84A, FW revertant) (antibody, V domains shown)
VH: B1 VH with K16R, D30E, E32Y, E56A, E57N, T88A, H104G, V112D
VL: not shown
notes: VH/VL only
B3: P1-068761_E56N (antibody, human IgG1, kappa, V domains shown)
VH: B1 VH with D30E, E57N
VL: not shown
notes: also called P1-070870
B4: P1-071781 (P1-070906_HC_K16R_T84A, FW revertant) (antibody, V domains shown)
VH: B1 VH with K16R, D30E, E32Y, E57N, T88A, H104G, V112D
VL: not shown
notes: VH/VL only
B5: P1-068761_E55A_E56N (antibody, human IgG1, kappa, V domains shown)
VH: B1 VH with D30E, E56A, E57N
VL: not shown
notes: also called P1-070878
B6: P1-071763 (P1-068761_HC_K16R_T84A, FW revertant) (antibody, V domains shown)
VH: B1 VH with K16R, D30E, T88A
VL: not shown
notes: VH/VL only
B7: P1-072008 (P1-061029_Y32E_F100fE) (antibody, human IgG1, kappa, V domains shown)
VH: B1 VH with E56A, E57N, H104G
VL: not shown
notes: also called P1-72008
B8: P1-068761_E56N_H100G (antibody, human IgG1, kappa, V domains shown)
VH: B1 VH with D30E, E57N, H104G
VL: not shown
notes: also called P1-070900
B9: P1-071795 (P1-070916_HC_K16R, FW revertant) (antibody, V domains shown)
VH: B1 VH with K16R, D30E, E32Y, E56A, E57N, H104G, V112D
VL: not shown
notes: VH/VL only
B10: P1-071771 (P1-068767_HC_K16R, FW revertant) (antibody, V domains shown)
VH: B1 VH with K16R, D30E, E32Y, N52D, E57N, H104G, V112D
VL: not shown
notes: VH/VL only
B11: P1-071769 (P1-068767_HC_K16R_T84A, FW revertant) (antibody, V domains shown)
VH: B1 VH with K16R, D30E, E32Y, N52D, E57N, T88A, H104G, V112D
VL: not shown
notes: VH/VL only
B12: P1-071777 (P1-070868_HC_K16R, FW revertant) (antibody, V domains shown)
VH: B1 VH with K16R, D30E, E56A
VL: not shown
notes: VH/VL only
B13: P1-071767 (P1-068761_HC_T84A, FW revertant) (antibody, V domains shown)
VH: B1 VH with D30E, T88A
VL: not shown
notes: VH/VL only
B14: P1-071779 (P1-070868_HC_T84A, FW revertant) (antibody, V domains shown)
VH: B1 VH with D30E, E56A, T88A
VL: not shown
notes: VH/VL only
B15: P1-068761_E30D_E56N (antibody, human IgG1, kappa, V domains shown)
VH: B1 VH with E57N
VL: not shown
notes: also called P1-070892
B16: P1-071773 (P1-068767_HC_T84A, FW revertant) (antibody, V domains shown)
VH: B1 VH with D30E, E32Y, N52D, E57N, T88A, H104G, V112D
VL: not shown
notes: VH/VL only
B17: P1-072004 (P1-061029_V102D) (antibody, human IgG1, kappa, V domains shown)
VH: B1 VH with E32Y, E56A, E57N, H104G, E110F, V112D
VL: not shown
notes: also called P1-72004
B18: P1-068761_E30D_E55A (antibody, human IgG1, kappa, V domains shown)
VH: B1 VH with E56A
VL: not shown
notes: also called P1-070890
B19: P1-068761_H100G (antibody, human IgG1, kappa, V domains shown)
VH: B1 VH with D30E, H104G
VL: not shown
notes: also called P1-070872
B20: P1-072000 (P1-061029_F100fE_V102D) (antibody, human IgG1, kappa, V domains shown)
VH: B1 VH with E32Y, E56A, E57N, H104G, V112D
VL: not shown
notes: also called P1-72000
B21: P1-071797 (P1-070916_HC_T84A, FW revertant) (antibody, V domains shown)
VH: B1 VH with D30E, E32Y, E56A, E57N, T88A, H104G, V112D
VL: not shown
notes: VH/VL only
B22: P1-071765 (P1-068761_HC_K16R, FW revertant) (antibody, V domains shown)
VH: B1 VH with K16R, D30E
VL: not shown
notes: VH/VL only
B23: P1-072002 (P1-061029_F100fE) (antibody, human IgG1, kappa, V domains shown)
VH: B1 VH with E32Y, E56A, E57N, H104G
VL: not shown
notes: also called P1-72002
B24: P1-071775 (P1-070868_HC_K16R_T84A, FW revertant) (antibody, V domains shown)
VH: B1 VH with K16R, D30E, E56A, T88A
VL: not shown
notes: VH/VL only
B25: P1-071791 (P1-070908_HC_T84A, FW revertant) (antibody, V domains shown)
VH: B1 VH with D30E, E32Y, N52D, E56A, E57N, T88A, H104G, V112D
VL: not shown
notes: VH/VL only
B26: P1-071783 (P1-070906_HC_K16R, FW revertant) (antibody, V domains shown)
VH: B1 VH with K16R, D30E, E32Y, E57N, H104G, V112D
VL: not shown
notes: VH/VL only
B27: P1-071789 (P1-070908_HC_K16R, FW revertant) (antibody, V domains shown)
VH: B1 VH with K16R, D30E, E32Y, N52D, E56A, E57N, H104G, V112D
VL: not shown
notes: VH/VL only
B28: P1-072006 (P1-061029_Y32E) (antibody, human IgG1, kappa, V domains shown)
VH: B1 VH with E56A, E57N, H104G, E110F
VL: not shown
notes: also called P1-72006
B29: P1-071785 (P1-070906_HC_T84A, FW revertant) (antibody, V domains shown)
VH: B1 VH with D30E, E32Y, E57N, T88A, H104G, V112D
VL: not shown
notes: VH/VL only
B30: P1-070868 (P1-068761_E55A) IgG1.3 (antibody, V domains shown)
VH: B1 VH with D30E, E56A
VL: not shown
notes: IgG1.3
B31: P1-068761_E30D_H100G (antibody, human IgG1, kappa, V domains shown)
VH: B1 VH with H104G
VL: not shown
notes: also called P1-070894
B32: P1-071787 (P1-070908_HC_K16R_T84A, FW revertant) (antibody, V domains shown)
VH: B1 VH with K16R, D30E, E32Y, N52D, E56A, E57N, T88A, H104G, V112D
VL: not shown
notes: VH/VL only

Tests used:
[1] = biological target: T1, monovalent hVISTA-ECD (amino acids 32-193 of SEQ ID NO: 1 with a 7xHis tail) (human, UniProt Q9H7M9 33-193); assay: SPR, mAb captured on Protein A, hVISTA-ECD analyte, 37 C, pH 6.7
T1 construct: also called huVISTA-His; human VISTA-ECD
T1 sequence (Q9H7M9 other isoform, or with tags, fused parts or gaps limits assumed): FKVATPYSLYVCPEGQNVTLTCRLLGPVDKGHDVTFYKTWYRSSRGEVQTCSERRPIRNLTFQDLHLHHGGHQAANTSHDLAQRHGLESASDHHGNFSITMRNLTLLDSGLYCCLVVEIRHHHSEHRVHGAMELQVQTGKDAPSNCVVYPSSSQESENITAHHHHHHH
Description: (§1) Binding kinetics were measured using a Biacore® T100 instrument (GE Healthcare). Protein A (ThermoFisher Scientific catalog #21181) was diluted to 20 μg/ml in 10 mM sodium acetate pH 4.5 and immobilized onto flow cells of a CM5 biosensor following the manufacturer's amine coupling protocol (GE Healthcare), targeting 2,000 RU immobilization density of Protein A per flow cell. The assay was conducted at 37° C. using PBST (137 mM sodium chloride, 2.7 mM potassium chloride, 10 mM phosphate buffer, 0.05% Tween 20) running buffer at pH 7.4, 6.7 and 6.0. Antibodies were diluted to 25 nM in PBST pH 7.4, and were captured across active biosensor flow cells at 5 ul/min for 40 seconds. A concentration series of 100-10 nM monovalent hVISTA-ECD (SEQ ID NO: 325) was prepared in pH 7.4, 6.7 and 6.0 running buffers, and was injected over the captured antibodies at 40 ul/min to measure association and dissociation. Two 15 second injections of 10 mM glycine pH 1.5 were used to regenerate the Protein A capture surface between assay cycles. Rate constants ka (kon) and kd (koff) were derived from reference flow cell and 0 nM blank-subtracted sensorgrams, and were fit to a 1:1 binding model in Biacore® T200 Evaluation Software v.2.0.
(§2) The affinity constant, KD was calculated as the ratio of rate constants koff/kₒₙ for each VISTA antibody. The % Rmax was calculated to compare how pH affects an antibody's binding capacity for VISTA, and represents the measured maximal VISTA binding response relative to the expected maximal VISTA binding response. The % Rmax is defined as the ratio of the reference-subtracted ‘binding’ report point response at the end of the 100 nM VISTA injection for each antibody (Rmax) relative to the expected VISTA binding response (Rexp). Rexp is calculated as Rexp=[(VISTA-ECD molecular weight/mAb molecular weight)×(mAb ‘capture’ report point response (RUs)]×2 binding sites per mAb.

[2] = biological target: T1, monovalent hVISTA-ECD (amino acids …); assay: SPR, mAb captured on Protein A, hVISTA-ECD analyte, 37 C, pH 6.0
Description: as §1, §2

[3] = biological target: T1, monovalent hVISTA-ECD (amino acids …); assay: SPR, mAb on Protein A, 37C, pH 6.0; pH 6.0
Description: (§3) Binding of several preparations of each of the '029 progeny clones and of the parent '029 antibodies, formatted as IgG1.3 antibodies, to human VISTA at pH 6.0 and 7.4 was measured by Surface plasmon resonance (SPR). SPR analysis was performed to measure koff and KD binding affinity measurements for VISTA Abs at acidic and neutral pHs using a Biacore® T100 instrument (GE Healthcare). Protein A (ThermoFisher Scientific catalog #21181) was diluted to 20 μg/ml in 10 mM sodium acetate pH 4.5 and immobilized onto flow cells of a CM5 biosensor following the manufacturer's amine coupling protocol (GE Healthcare), targeting 2,000 RU immobilization density of Protein A per flow cell. SPR experiments were conducted at 37° C. using PBST (137 mM sodium chloride, 2.7 mM potassium chloride, 10 mM phosphate buffer, 0.05% Tween® 20) running buffer at pH 7.4 and 6.0. Antibodies were diluted to 25 nM in PBST pH 7.4, and were captured across active biosensor flow cells at 5 ul/min for 60 seconds. A concentration series of 50-5 nM monovalent hVISTA-ECD (SEQ ID NO: 325) was prepared in pH 7.4 and 6.0 running buffers, and was injected over the captured antibodies at 40 ul/min to measure association and dissociation. Two 15 second injections of 10 mM glycine pH 1.5 were used to regenerate the Protein A capture surface between assay cycles. Rate constants ka (kₒₙ) and kd (koff) were derived from reference flow cell and 0 nM blank-subtracted sensorgrams, and were fit to a 1:1 binding model in Biacore® T200 Evaluation Software v.2.0. The affinity constant, KD was calculated as the ratio of rate constants koff/kₒₙ for each VISTA antibody.

[4] = biological target: T1, monovalent hVISTA-ECD (amino acids …); assay: SPR, mAb on Protein A, 37C, pH 7.4
Description: as §3

[5] = biological target: T1, monovalent hVISTA-ECD (amino acids …); assay: SPR, mAb on Protein A, 37C, pH 6.0
Description: as §3

| Kd [3] [nM] | koff [3] [s⁻¹] | kon [3] [M⁻¹ s⁻¹] | other results | Binder |
| --- | --- | --- | --- | --- |
|  |  |  | koff [1]: 0.018 s⁻¹; koff [2]: 0.0062 s⁻¹ | B1 |
| 8.1 | 0.0017 | 210000 |  | B2 |
|  |  |  | koff [2]: 0.0055 s⁻¹ | B3 |
| 7.7 | 0.0017 | 220000 |  | B4 |
|  |  |  | koff [1]: 0.029 s⁻¹; koff [2]: 0.0056 s⁻¹ | B5 |
| 4.9 | 0.0014 | 290000 |  | B6 |
| 88 | 0.024 | 270000 |  | B7 |
|  |  |  | koff [2]: 0.0081 s⁻¹ | B8 |
| 8.1 | 0.0017 | 210000 |  | B9 |
| 11 | 0.0026 | 250000 |  | B10 |
| 11 | 0.0026 | 240000 |  | B11 |
| 6.4 | 0.0017 | 270000 |  | B12 |
| 5.1 | 0.0016 | 310000 |  | B13 |
| 7 | 0.0018 | 260000 |  | B14 |
|  |  |  | koff [2]: 0.034 s⁻¹ | B15 |
| 9.8 | 0.0026 | 270000 |  | B16 |

| Kd [3] [nM] | koff [3] [s⁻¹] | kon [3] [M⁻¹ s⁻¹] | other results | Binder |
| --- | --- | --- | --- | --- |
| 180 | 0.025 | 140000 |  | B17 |
|  |  |  | koff [2]: 0.0074 s⁻¹ | B18 |
|  |  |  | koff [1]: 0.014 s⁻¹; koff [2]: 0.0052 s⁻¹ | B19 |
| 12 | 0.0023 | 200000 |  | B20 |
| 7.7 | 0.0017 | 220000 |  | B21 |
| 5 |  | 280000 |  | B22 |
|  |  |  | Kd [4]: 190 nM; koff [4]: 0.0085 s⁻¹; kon [4]: 44000 M⁻¹ s⁻¹; Kd [5]: 2.5 nM; koff [5]: 0.0016 s⁻¹; kon [5]: 650000 M⁻¹ s⁻¹ | B23 |
| 6.9 | 0.0017 | 250000 |  | B24 |
| 11 | 0.0027 | 240000 |  | B25 |
| 7.6 | 0.0017 | 220000 |  | B26 |
| 13 | 0.0026 | 210000 |  | B27 |
|  |  |  | Kd [4]: 540 nM; koff [4]: 0.0063 s⁻¹; kon [4]: 12000 M⁻¹ s⁻¹; Kd [5]: 3.5 nM; koff [5]: 0.0012 s⁻¹; kon [5]: 340000 M⁻¹ s⁻¹ | B28 |
| 6.7 | 0.0017 | 250000 |  | B29 |
| 7 | 0.0018 | 260000 | koff [1]: 0.0064 s⁻¹; koff [2]: 0.0017 s⁻¹ | B30 |
|  |  |  | koff [2]: 0.021 s⁻¹ | B31 |
| 13 | 0.0027 | 210000 |  | B32 |
